In assay [1] the test system is HeLa cells. Put plainly: Live cell confocal imaging of split HaloTag in the FRB/FKBP model system in HeLa cells. It counts as cell-based. The settings on record: for signal-to-background ratio, complemented split HaloTag over labeling the large HaloTag alone: presence of Rapamycin; for S:B ratio in +rapamycin/−rapamycin conditions: with HaloTag[3-19] fragment, JF646 imaging. The protocol:
(§1) FIG. 105. Live cell imaging of split HaloTag activity in mammalian cells using a model protein interaction system showing dependence on interaction facilitation for labeling. HeLa cells transiently transfected with plasmids expressing both EGFP-FKBP-HaloTag[3-19] and HaloTag[22-297](Q145H+P154R)-FRB were imaged in +/−Rapamycin conditions; in +Rapamycin condition cells were incubated with 1 micromolar Rapamycin overnight at 37° C. Prior to imaging by confocal microscopy, cells were labeled with 100 nM JF646 HaloTag ligand for 30 minutes at 37° C. The Imaging data were collected in the Far-red channel (Ex. 637 nm, left) and the green channel (Ex. 488 nm, right).
(§2) FIG. 106. Quantitation of live cell imaging of split HaloTag activity in mammalian cells using a model protein interaction system. HeLa cells transiently transfected with plasmids expressing both EGFP-FKBP-HaloTag[3-19] and HaloTag[22-297](Q145H+P154R)-FRB were imaged in +/−Rapamycin conditions; in +Rapamycin condition cells were incubated with 1 micromolar Rapamycin overnight at 37° C. Prior to imaging by confocal microscopy, cells were labeled with 100 nM JF646 HaloTag ligand for 30 minutes at 37° C. Comparison of the fluorescence intensity of non-complemented vs. complemented split HaloTag in +/−RAP conditions in the far-red channel, respectively.
as §1, with “107.” for “105.”, “HaloTag[22-297](M2F)-FRB” for “HaloTag[22-297](Q145H+P154R)-FRB”
as §2, with “FIG. 108. Quantitation of” for “FIG. 106. Quantitation of”, “EGFP-FKBP-HaloTag[3-19] and HaloTag[22-297](M2F)-FRB were imaged” for “EGFP-FKBP-HaloTag[3-19] and HaloTag[22-297](Q145H+P154R)-FRB were imaged”, “minutes at Comparison of” for “minutes at 37° C. Comparison of”
FIG. 109. […] Each dot represents the intensity of an imaged cell as quantitated using CellProfiler software.
FIG. 115. Live cell imaging of split HaloTag activity in mammalian cells. HeLa cells transiently transfected with plasmids expressing both EGFP-FKBP-HaloTag[3-19] and HaloTag[22-297](Q145H+P154R)-FRB were imaged in +Rapamycin condition, 1 micromolar Rapamycin overnight incubation at 37° C. Prior to imaging by confocal microscopy, cells were labeled with 100 nM JF646 HaloTag ligand for 30 minutes at 37° C. The Imaging data were collected in the Far-red channel (Ex. 637 nm, bottom) and the green channel (Ex. 488 nm, top).
FIG. 116. Live cell imaging of split HaloTag activity in mammalian cells. HeLa cells transiently transfected with plasmids expressing both EGFP-FKBP-HaloTag[3-19] and HaloTag[22-297](Q145H+P154R)-FRB were imaged in and −Rapamycin condition. […]

Assay [2] addresses T1, BRD4:Histone H3.3 interaction (Homo sapiens, UniProt O60885).
T1 construct: HaloTag[3-19]; expressed in transfected cells; host or cells: HeLa cells
Put plainly: Live cell imaging of the BRD4:Histone H3 interaction with split HaloTag in HeLa cells. Format: cell-based. The settings on record: second experiment, lower laser intensity.
Source text: The Imaging data were collected in the far-red channel (Ex. 637 nm) and the green channel (Ex. 488 nm).
The imaging data were collected in the far-red channel (Ex. 637 nm) and the green channel (Ex. 488 nm). * DIC: Differential Interference Contrast.
The imaging data were collected in the far-red channel (Ex. 637 nm) and the green channel (Ex. 488 nm).
Each dot represents the intensity of an imaged cell. CellProfiler software is used for analysis. The horizontal line in each set indicates the median of the data.
Each dot represents the intensity of an imaged cell. CellProfiler software is used for this analysis. The horizontal line is indicative of the median of the data.
A second set of imaging experiments was performed to confirm reproducibility and show improvement of the system's signal-to-background ratio by changing a few confocal microscope settings, such as lower gain and laser intensity (FIG. 132).
The purpose of the second experiment (FIG. 131-134) with lower signal intensity was to see if most of the background signal could be eliminated with the cost of the overall reduction in the specific signal in the far-red channel.

Assay [3] in a line: Kinetic labeling assay with TMR ligand, fluorescence polarization, synthetic peptide complementation. The settings on record: 10 nM TMR ligand. It counts as biochemical, E. coli. How it is done:
FIG. 32. Complementation of HaloTag[22-297](M2F) fragments using a synthetic HaloTag[3-19] peptide in a kinetic labeling assay.
A different HaloTag ligand (TMR) and fluorescence polarization assay format can be used to measure complementation with synthetic peptides (FIG. 32). […] At high peptide concentrations, the complementation with the peptide results in greater labeling rates.
The LgHT variant, HaloTag[22-297](Q145H+P154R), was also tested with the HaloTag ligand (TMR) in the fluorescence polarization assay format to measure complementation with synthetic peptides (FIG. 33). The relative kinetic rate of labeling is higher for this mutant without peptide due to its greater intrinsic stability and expression in E. coli lysates.
Background: Fluorescence polarisation rises when a labelled molecule tumbles more slowly, as on binding a larger partner.

For assay [4], the system named is HeLa cells. In words: Lytic TMR assay of large HaloTag fragment expression in HeLa cells. It counts as cell-based. The settings on record: complemented and non-complemented forms. The protocol: FIG. 124. Comparing the expression of HaloTag[22-297](Q145H+P154R) and HaloTag[22-297](M2F) when complemented with the small HaloTag fragment in mammalian cells. 50 ul of HeLa cells lysate that was transiently transfected with plasmids expressing EGFP-FKBP-HaloTag[3-19], HaloTag[22-297](Q145H+P154R)-FRB or HaloTag[22-297](M2F)-FRB plasmids and were incubated with 500 nM Rapamycin at room temperature for 2 hours to induce HaloTag fragments complementation. TMR HaloTag ligand at 2 micromolar was added to all wells and incubated at room temperature in the dark overnight prior to resolution by SDS-PAGE and fluorescence detection.
Experiments were conducted during development of embodiments herein to compare the expression of HaloTag[22-297](Q145H+P154R) vs. HaloTag[22-297](M2F) as complemented with the small HaloTag fragment HaloTag[3-19] and non-complemented form in mammalian cells (FIG. 124).

B1: HaloTag[22-297](M2F): large HaloTag fragment, positions 22-297 with M to F substitution at second position (protein)
chain: MFHYVDVGPRDGTPVLFLHGNPTSSYVWRNIIPHVAPTHRCIAPDLIGMGKSDKPDLGYFFDDHVRFMDAFIEALGLEEVVLVIHDWGSALGFHWAKRNPERVKGIAFMEFIRPIPTWDEWPEFARETFQAFRTTDVGRKLIIDQNVFIEGTLPMGVVRPLTEVEMDHYREPFLNPVDREPLWRFPNELPIAGEPANIVALVEEYMDWLHQSPVPKLLFWGTPGVLIPPAEAARLAKSLPNCKAVDIGPGLNLLQEDNPDLIGSEIARWLSTLEISG
Turning to B1, in assay [1], the “signal-to-background ratio, complemented split HaloTag over labeling the large HaloTag alone” value was 16 and the “S:B ratio in +rapamycin/−rapamycin conditions” value is “about 6.7”. In assay [2], the “S:B ratio, background from labeling the large HaloTag” value is on record as 12.

B2: HaloTag[22-297](Q145H+P154R): variant of the LgHT, positions 22-297 with HaloTag9 mutations (protein)
chain: MMHYVDVGPRDGTPVLFLHGNPTSSYVWRNIIPHVAPTHRCIAPDLIGMGKSDKPDLGYFFDDHVRFMDAFIEALGLEEVVLVIHDWGSALGFHWAKRNPERVKGIAFMEFIRPIPTWDEWPEFARETFQAFRTTDVGRKLIIDHNVFIEGTLRMGVVRPLTEVEMDHYREPFLNPVDREPLWRFPNELPIAGEPANIVALVEEYMDWLHQSPVPKLLFWGTPGVLIPPAEAARLAKSLPNCKAVDIGPGLNLLQEDNPDLIGSEIARWLSTLEISG
Take B2: in assay [3], the “labeling rate in the presence of peptide” value is “faster labeling rates relative to the HaloTag[22-297](M2F) mutant”. Further, the “response to Rapamycin” value in assay [1] (HaloTag[3-19] fusion plus variant LgHT fusion, 1 micromolar Rapamycin, 100 nM JF646) stood at 25 fold. In assay [1], the “signal-to-background ratio, complemented split HaloTag over labeling the large HaloTag alone” value was found to be 5.7 and the “S:B ratio in +rapamycin/−rapamycin conditions” value is “about 4”. In assay [4], the “expression in mammalian cells” value is “expressed better than HaloTag[22-297](M2F)”. Besides, the “apparent affinity for the peptide” value (saturates fluorescence intensity at higher peptide concentrations) was “higher apparent affinity for the peptide”. Besides, the “lowest peptide concentration with measurable fold response” value (synthetic HaloTag[3-19] peptide) is given as “mid-nanomolar range”.
